Laboratory results: paper PMC3854527

Columns and labels:
Sub2p Y12S = molecular target: T1, Sub2p Y12S (Saccharomyces cerevisiae, UniProt Q07478 1-446, Y12S); test: EMSA
T1 sequence: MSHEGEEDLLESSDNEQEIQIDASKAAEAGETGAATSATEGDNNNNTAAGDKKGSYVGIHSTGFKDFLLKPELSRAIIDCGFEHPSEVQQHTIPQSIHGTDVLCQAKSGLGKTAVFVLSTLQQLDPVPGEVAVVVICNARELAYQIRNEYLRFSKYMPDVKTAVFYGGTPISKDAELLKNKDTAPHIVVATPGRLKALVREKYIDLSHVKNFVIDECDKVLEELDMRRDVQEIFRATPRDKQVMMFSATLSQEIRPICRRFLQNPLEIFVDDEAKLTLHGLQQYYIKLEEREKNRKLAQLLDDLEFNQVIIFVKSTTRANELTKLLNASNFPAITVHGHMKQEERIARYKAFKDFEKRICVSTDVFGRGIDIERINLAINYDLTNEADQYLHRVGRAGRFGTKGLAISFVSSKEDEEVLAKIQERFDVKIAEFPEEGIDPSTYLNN

Sub2p wt = molecular target: T2, Sub2p wt (Saccharomyces cerevisiae, UniProt Q07478 1-446); test: EMSA
T2 sequence: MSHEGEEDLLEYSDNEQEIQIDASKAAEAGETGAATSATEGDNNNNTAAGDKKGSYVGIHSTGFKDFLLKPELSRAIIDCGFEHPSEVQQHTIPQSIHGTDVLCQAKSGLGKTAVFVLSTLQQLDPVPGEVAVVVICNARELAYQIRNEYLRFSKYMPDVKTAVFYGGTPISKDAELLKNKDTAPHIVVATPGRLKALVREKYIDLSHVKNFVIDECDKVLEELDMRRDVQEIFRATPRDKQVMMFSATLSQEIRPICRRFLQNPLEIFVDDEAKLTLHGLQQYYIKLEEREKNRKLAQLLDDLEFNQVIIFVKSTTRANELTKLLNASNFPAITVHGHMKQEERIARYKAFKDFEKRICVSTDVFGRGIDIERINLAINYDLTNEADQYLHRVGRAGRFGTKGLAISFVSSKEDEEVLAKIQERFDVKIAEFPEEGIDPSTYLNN

Binder: AGCACCGUAAAGC (ssRNA) [13-mer ssRNA]
- binding result (Sub2p Y12S): binds
- binding result (Sub2p wt): binds
